Laboratory results as given in the DeepSol protein solubility set.

Assay: soluble on expression in E. coli; label from the status in PepcDB or PDB records

Sequence | soluble on expression in E. coli
MGSDKIHHHHHHMEHLPEQYRQLFPTLQTHTMLASCSQSALAEPVSRAIQDYYDSLLYKGTNWKEAIEKTEFARNEFAKLIGAEPDEVAIVPSVSDALVSVASSLTAFGKKHVVYTDMDFPAVPHVWQAHSDYTVSVIPSIDGVLPLEQYETHISDETVLTCVPHVHYRDGYVQDIKAIAEISQRKGSLLFVDAYQSAGHIPIDVKEWGVDMLAAGTRKYLLGIPGVAFLYVRKELADALKPKASAWFGRESGFDGAYAKVARRFQTGTPAFISVYAAAAALSLLNHIGVSHIRDHVKTICADAVQYAAEKGLQLAAAQGGIQPGMVAIRDERASETAGLLKKKKVICAPRENVIRLAPHFYNTKEEMRHAIDEIAAKTIHK | not soluble
MGSDKIHHHHHHMDLTQLRMFCLVAETGSVARAAEQLHRVPSNLTTRLRQLELELGTDLFIREKQRLRLSPIGHNFLCYAQRILALSEEAISMTRTGEPAGNFALGSMESTAATRLPTLLAAYHQRYPNVSLSLNTGTSGEIIERVRAGTLAAALVDGPVVYDELNGCSCFAEQLVLISDPSHSPITHARDASNDTLFAFRPSCSYRKRLENWFRQDGVVPGTIMEIHSYHAMLACVASGSGLAMLPYAVLESLPAGARVQVHELPPDIAAASTWLVWRRDAFGPNVEALKKLIIEQSAQSE | not soluble
MTDRYTIHSQLEHLQSKYIGTGHADTTKWEWLVNQHRDSYCSYMGHFDLLNYFAIAENESKARVRFNLMEKMLQPCGPPADKPEEN | soluble
MMELHRRVLEGDEAALKTLVSAAPNIGEVARDVVEHLSPGSYREGGPCAVCGGRLESVIASAVEEGYRLLRAYDIERFVVGVRLERGVAMAEEEVKLAAGAGYGESIKAEIRREVGKLLVSRGGVTVDFDSPEATLMVEFPGGGVDIQVNSLLYKARYWKLARNISQAYWPTPEGPRYFSVEQALWPVLKLTGGERLVVHAAGREDVDARMLGSGRPMIVEVKSPRRRRIPLEELEAAANAGGKGLVRFRFETAAKRAEVALYKEETARVRKVYRALVAVEGGVSEVDVEGLRRALEGAVIMQRTPSRVLHRRPDILRRRRLYSLDCSPLEGAPLMECILEAEGGLYIKELVSGDGGRTRPSFAEVLGREAVCIELDVVWVEHEAPAAPGLEHHHHHH | soluble
MGSDKIHHHHHHAKSVATTEHLKRYTEAISHDSCQGRKPFSEGADRAVNYIAHQMKEVGLKPINGDSYFQQVNIISSRTRCPDPMVLKTPKGKIPLDWLEGYTAFSARIEPEIDIDNAELVFAGYGIVAPEYGKNDFEGIENPQDKVAVVIVNDPGLGSDNTDYFNGDIMTYYGRWMYKFEEGARQGLKGVLIIHEDRGAGYPWSVVRASAQSKMYVDSDSDAYHCPLNGWIQFNAAKQLLADNGYDIDQLIEQSKSPDFKPISLKSTVTVSMRNTFDRQQSPNVIGYIPGSGNTDESVIYLGHWDHLGYGAPINGDSIINGATDNAVAIAWMLEMARCFNVLKEKPRRNIVFLSPTCEETGFLGTKYYVEHPLFPIDKIAAVINLDVFPLWGENNDVTITGYGNSELDDTLAELAKKYNRYIMPDPDAYNGMFYRSDHFPFVQKGIPAMFAKGWNDNRKQGKEWAKEHIAHYWAETYHKPTDQTHPDTDDYSGLLQEVQLFFDLGYKLAQDTGYPKWKPKSEFANVLKR | not soluble
MATADVKSTVPHMDMDRGGAFDFSNCIRNQAMCKMGGKAPKLTSTGTTIVAVAFKGGLVMGADSRATAGNIIADKHCEKVHKLTESIYACGAGTAADLDQVTKMLSGNLRLLELNTGRKARVITALRQAKQHLFNYQGYIGAYLLIGGVDPTGPHLYMCSANGTTMAFPFTAQGSGSYAAITILERDFKVDMTKDEAEKLVQRALEAGMHGDNASGNSLNLVIIEPSETVFKGPIVPEFCKRPEPNDLVYKFQAGATKVLKHKTYKYDVVESMDITH | not soluble
MEKELVFAGFGGQGVLTLGLIVAESALELGKQVTWMPAYGPTMRGGKAYSVVKFSDESIGGPDMEEIDVLVAMNKPSLDYINLVKEGGTVVINTSAIDENVTLREDISVVKINCQELAQKVNNPK | not soluble
MGSDKIHHHHHHMLSRVAENLYWMARYLERTEDMARLINATTLLLLDLPQGAEFGWDILLQVTGDAKLYMEHYGTPEEGRIMRFLIADERNPNSVMAAIHQARENCRTFRDLLPAEFWERLNTLFLFVREHAGTSSDSRHARYAFLNEVISRRHALVGLLISSMSQDNVYQFIKLGRNMERADMTTRIVDVTSAVILPQDQGLQKTTTSSLWLGVLRALSAFEMYRRHVSVQVRSNQVVDYLLKDNKFPRSMKYCLGEMEVALAYLPNAGIPAEAVRRARRRLDALKLANLRPDLLHEYLDQAQKDLAMVHRTIHGTYFARDDTGFDGVPSGLLLNAAQA | not soluble
MSEMSVIIEFSIVPMGEVSISKYVAEIIKLVRDRGVKYQLTPMGTILEVNSIEEGLSIIRDAHELMFKLGSKRVLTTIRIDERRDKARTMEDKVKSVMEKVESVRE | soluble
MGSDKIHHHHHHMNITPKSIIGDIKKKNGNINRVIFTGCGASMADLYPGYYFISHESKHLLSSIMQANEFNYDTPKDVNENTIVITASLGGSTPESVEATKHARELGAHVVTLSHVPNSAIINEAEYSLVHGFEEDYAHKTEKMTLALQLAIEIVNQFEGYDYYADAQKAFEGLFNLINQEANMVAPAAEEFVTKYKDENTIYVLGSGASADVAYSTASFLFMEMQWISSPTIHSGEFFHGPFELALKDTPYLLFMSDGNTRHLDARAMAFLQRFDTKLTVIDAKDHGLASIASSNVIDYFNPMLITGVMRVYAEKLAEARQHPLTQRRYMWKLENY | not soluble
MADTEGTSSSIPTSTNSSRHRASRGRGGRFRQAPRQVGANTADNLDAAPLMNPRGGHRGGSGNKRGRGQKEATSASRLQMQPEANFTFNPNAATFNPAQSVLFDPSVPPPTIGASTHSNQNSRQQEPSQNRRRRGGQQNTQRRQLEIQEQRGDSHPQNQSRQNNRNQLNVDRIANQQNKSVQNPSRNPGNSRRGQGARRREQKEEPLTEEETKILADKPLREGLVYLLENNKYECAICYTRITTRQGVWSCKTCYHIFHISTGCITDWARSSRDKEGANTWRCPTCQTENETMPYNYYCFCGRMRNPNFRVGEVPHSCGETCGGARKFGCPHPCTELCHPGPCIECKLFTTKSCNCGKTKKSVRCGSDQEVMCETVCGKQLSCGQHNCERICHSGDCGECTVILEQDCFCGKTPKEVSCNPCAHEKYSCGSECDGMFSCGIHHCTKKCHDKECGECETGANRIRTCPCGRNTLQSLGVTRKKCTDMVPTCDSVCDKWLTCGTPGKNHHCREKCHEGPCPPCNLNTSVICRCGTSKGVIPCDEYLQIMKTTGEYLCTKRCRKKKSCGMHKCQEVCCIQDEHFCLQMCNKRLSCGIHTCENVCHAGQCRPCLQASFDEQFCHCGHTVRMPPIPCGARLPVCSQPCVRPHSCDHSVSHKCHGEQNCPPCTQLTEKMCYGGHRVRKNIPCHIDSVSCGVVCKKPLKCGVHVCQRTCHGEECEKEGEKCTKKCETIRELCEHPCALPCHEDSPCEPSPCKASVRISCECGRIKKDAPCCEVDKMILSKLEKEEEEKSESDGEEKVVKEGILKRSTSFSQLNCMKCDDECKKLERNRKVAEALEVDTDEYGMNKLAPTISFPCYLKEMVRTNIDFVKSVEKILIDLVIQILSGEAYHDTFRAHLPAMSIEKRRFVHEYANFFNIASESVDSPPKRSIVLTAVRGKSHQPLVLISDLVNYKGALKTPGPAVIRKDIMDQALSKKEETEGLMKPLRCTEKMVVRREARPMKEITAPIPLKQQNQFALLGSDVDSDDEESNVPTTSNLVSSPPKDWWKDEEEGWQKVQQKEYVVEVERDMTEDEIEAAKKLDEGPTWEDQCDEDAPATETSSAIESPAKEEPVAELLE | soluble
PMSEKQLAEVVERTVTPLMKAQAIPGMAVAVIYEGQPHYFTFGKADVAANKPVTPQTLFELGSISKTFTGVLGGDAIARGEISLGDPVTKYWPELTGKQWQGIRMLDLATYTAGGLPLQVPDEVKDNASLLRFYQNWQPQWKPGTTRLYANASIGLFGALAVKPSGMSYEQAITTRVFKPLKLDHTWINVPKAEEAHYAWGYRDGKAVHVSPGMLDAEAYGVKTNVQDMASWVMVNMKPDSLQDNSLRKGLTLAQSRYWRVGAMYQGLGWEMLNWPVDAKTVVEGSDNKVALAPLPAREVNPPAPPVNASWVHKTGSTGGFGSYVAFIPEKQLGIVMLANKSYPNPARVEAAYRILSAL | soluble
MEPMHKINKVEVRNLQIEDYIQLSQSFKRVYADKDVFWTHEQIETLIRIFPEGQVVTVVDDKIVGCALSIIVDYDMVKGDHTYAKVTGNETFCTHNPEGNILYGIEVFIHPDYRGLRLARRMYEYRKELCEKLNLKAIMFGGRIPNYYKYADTMRPKEYLDKVRSREIYDPVLTFQLSNDFHVRRVMKNYLP | not soluble
MGSDKIHHHHHHMPYERKIINDPVFGFINIPKGLLYDIVRHPLLQRLTRIKQVGLSSVVYPGAQHTRFQHSLGAFYLMSEAITQLTSKGNFIFDSEAEAVQAAILLHDIGHGPFSHVLEDTIVQGVSHEEISLMLMERMNKEMNGQLSLAIQIFKDEYPKRFLHQLVSGQLDMDRLDYLRRDSFYTGVTEGNIGSARIIKMLDVADDRLVIESKGIYSIENFLTARRLMYWQVYLHKTSVAYERMLISTLLRAKELASQGVELFASPALHFFLYNDINHTEFHNNPDCLENFIQLDDNDIWTALKVWSNHPDKVLSTLSLGMINRNIFKVENSAEPIGEDRIKELTLQISQQLGITLSEANYFVSTPSIEKNMYDPADDSIDIIYKDGTIKNIAEASDMLNISLLSKKVKKYYLCYQRLHR | not soluble
PGSSGLPPEKPKNLSCIVNEGKKMRCEWDGGRETHLETNFTLKSEWATHKFADCKAKRDTPTSCTVDYSTVYFVNIEVWVEAENALGKVTSDHINFDPVYKVKPNPPHNLSVINSEELSSILKLTWTNPSIKSVIILKYNIQYRTKDASTWSQIPPEDTASTRSSFTVQDLKPFTEYVFRIRCMKEDGKGYWSDWSEEASGITYEDRPSKEPSFW | soluble
MKKYQQLFKQIQETIQNETYAVGDFLPSEHDLMEQYQVSRDTVRKALSLLQEEGLIKKIRGQGSQVVKEETVNFPVSNLTSYQELVKELGLRSKTNVVSLDKIIIDKKSSLITGFPEFRMVWKVVRQRVVDDLVSVLDTDYLDMELIPNLTRQIAEQSIYSYIENGLKLLIDYAQKEITIDHSSDRDKILMDIGKDPYVVSIKSKVYLQDGRQFQFTESRHKLEKFRFVDFAKRKK | not soluble
MSLIAIYVRVSTEEQAIKGSSIDSQIEACIKKAGTKDVLKYADEGFSGELLERPALNRLREDASKGLISQVICYDPDRLSRKLMNQLIIDDELRKRNIPLIFVNGEYANSPEGQLFFAMRGAISEFEKAKIKERTSSGRLQKMKKGMIIKDSKLYGYKFVKEKRTLEILEEEAKIIRMIFNYFTDHKSPFFGRVNGIALHLTQMGVKTKKGAKVWHRQVVRQILMNSSYKGEHRQYKYDTEGSYVSKQAGNKSIIKIRPEEEQITVTIPAIVPAEQWDYAQELLGQSKREGHHHHHH | soluble
MQKRVTDEEIKERLGKIKSRIAVMSGKGGVGKSTVTALLAVHYARQGKKVGILDADFLGPSIPILFGLRNARIAVSAEGLEPVLTQKYGIKVMSMQFLLPKENTPVIWRGPLIAGMIREFLGRVAWGELDHLLIDLPPGTGDAPLTVMQDAKPTGVVVVSTPQELTAVIVEKAINMAEETNTSVLGLVENMSYFVCPNCGHKSYIFGEGKGESLAKKYNIGFFTSIPIEEELIKLADSGRIEEYEKDWFESAPFLEHHHHHH | soluble
MSLPRKIAYEIPKNWARSNHWLMKTIVGTTFEIEGLENIPETGCIFAPKHQSFWDTYALLPNLPDPVYILKRELLWIPLFGWYAMKQRMIPVNRAARGKVMLKVMERAKEEMAAGRELIIYPEGTRRPPGAEPEYRYGIARLYRDLQVPVIPVAMHPGLFWPRRSTMRYPGHFKVRILPAIEPGLDPDVFFKRLIEVTEKASDELLLETARNNPHLPLPPTAVKRIAELQGKETTADEGHHHHHH | not soluble
